These results are taken from PMC13001094, “Cargo Recognition of Nesprin‑2 by the Dynein Adapter Bicaudal D2 for a Nuclear Positioning Pathway That Is Important for Brain Development” (Biochemistry, 2026).

The target in assay [1] is Cytoplasmic dynein (bovine). Briefly: two-colour single-molecule assay (TIRF) of reconstituted complexes on microtubules; BicD2, instead of Nesprin-2, labelled with two different colours in DDBN complexes.
Assay [2] concerns the target T1, GST-tagged Nesprin-2 (aa 6123–6340) (mouse, UniProt Q6ZWQ0 6123-6340).
T1 construct: lacks the entire intrinsically disordered domain with the LEWD motif; deletion construct of m1; source: E. coli BL21(DE3)-RIL, purified on glutathione resin (not eluted before the pull-down); not shown: GST, N-terminal, kept
T1 sequence (looked up): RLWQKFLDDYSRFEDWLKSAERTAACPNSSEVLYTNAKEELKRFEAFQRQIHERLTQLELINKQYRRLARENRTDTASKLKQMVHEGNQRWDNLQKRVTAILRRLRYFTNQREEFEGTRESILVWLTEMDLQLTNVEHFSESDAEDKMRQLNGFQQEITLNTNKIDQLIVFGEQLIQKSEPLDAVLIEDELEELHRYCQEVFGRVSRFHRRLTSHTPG
Briefly: pull-down; GST-tagged Nesprin-1/2 fragment held on glutathione column (not eluted), incubated 30 min with Ni-NTA-purified His6-BicD2-CTD diluted to 125 mM NaCl; washed twice; eluted with 10 mM glutathione, 50 mM Tris pH 8.0, 150 mM NaCl, 1 mM DTT; SDS-PAGE, Coomassie; band ratio normalised to WT = 1. Conditions: both partners purified.

Assay [3] addresses T2, GST-tagged mouse Nesprin-2 (aa 6123–6421) (mouse, UniProt Q6ZWQ0 6123-6421).
T2 construct: pGEX6p1 vector; codon-optimised insert from Genscript; also called Nesprin-2-SR52-SR53AD; minimal Nesprin-2 fragment; source: E. coli BL21(DE3)-RIL, purified on glutathione resin (not eluted before the pull-down); not shown: GST, N-terminal, kept
T2 sequence (looked up): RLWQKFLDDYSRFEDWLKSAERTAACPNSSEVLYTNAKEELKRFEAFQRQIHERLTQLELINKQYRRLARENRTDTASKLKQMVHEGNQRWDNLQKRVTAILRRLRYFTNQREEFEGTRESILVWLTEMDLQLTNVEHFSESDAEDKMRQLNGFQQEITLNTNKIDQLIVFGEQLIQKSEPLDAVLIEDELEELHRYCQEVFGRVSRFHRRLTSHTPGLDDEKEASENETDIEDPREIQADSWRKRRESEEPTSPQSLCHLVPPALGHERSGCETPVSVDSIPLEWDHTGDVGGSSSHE
The description is as above. The following applies: both partners purified.

Assay [4] concerns the target T3, GST-tagged human Nesprin-1 (aa 7997–8328) (human, UniProt Q8NF91 7997-8328).
T3 construct: Nesprin-1, human, aa 7997-8328 cloned (the results speak of the domain aa 7998-8315: SR70, SR71 and a disordered domain with a LEWD motif); cloned into the same vector (pGEX6p1) as the Nesprin-2 fragment; also called Nesprin-1-SR70-SR71AD; Nesprin-1 fragment; source: E. coli BL21(DE3)-RIL, purified on glutathione resin (not eluted before the pull-down); not shown: GST, N-terminal, kept
T3 sequence (looked up): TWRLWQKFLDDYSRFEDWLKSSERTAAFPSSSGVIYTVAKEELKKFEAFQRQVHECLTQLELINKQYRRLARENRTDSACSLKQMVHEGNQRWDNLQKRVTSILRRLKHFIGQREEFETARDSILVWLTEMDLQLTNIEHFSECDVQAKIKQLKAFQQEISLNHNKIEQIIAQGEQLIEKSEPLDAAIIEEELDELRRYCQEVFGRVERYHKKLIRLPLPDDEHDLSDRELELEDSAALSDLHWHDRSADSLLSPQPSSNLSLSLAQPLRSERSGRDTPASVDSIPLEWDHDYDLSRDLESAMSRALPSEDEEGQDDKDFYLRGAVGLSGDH
The assay is described as above. Conditions: both partners purified.

The target in assay [5] is T4, Nesprin-2 fragment of the purified minimal Nesprin-2/BicD2 complex used for SEC-MALS (mouse).
T4 chain: T1 sequence (looked up)
Briefly: SEC-MALS; purified minimal Nesprin-2/BicD2 complex, GST tag on Nesprin-2; methods in the supplement. Conditions: both partners purified.

The molecule “Full-length, wild-type human BicD2 (from UniProt Q8TD16-2 1-855) (natural protein)” had a stoichiometry N (BicD2 per DDBN complex) in assay [1] of 1.

B1: His6-tagged human BicD2-CTD (aa 715–804) (domain or fragment, UniProt Q8TD16-2 715-804, looked up)
chain: YENEKAMVTETMMKLRNELKALKEDAATFSSLRAMFATRCDEYITQLDEMQRQLAAAEDEKKTLNSLLRMAIQQKLALTQRLELLELDHE
notes: pET28a vector; source: E. coli LOBSTR BL21(DE3)-RIL, purified (Ni-NTA); not shown: His6, N-terminal, kept
In the case of B1, the binding result in assay [2], in assay [3] and in assay [4] was “binds” throughout.

B2: BicD2-CTD of the purified minimal Nesprin-2/BicD2 complex used for SEC-MALS (domain or fragment, human, UniProt Q8TD16-2 715-804, looked up)
chain: B1 chain
notes: printed protomer mass 10.9 kDa; also called BicD2 protomer (10.9 kDa)
As for B2, the “stoichiometry N” value in assay [5] was 1 BicD2 per Nesprin-2 (2:2 complex).
